Read-outs that look alike come from different tables or passages of the source.
Columns and labels:
[1] = target: T1, 4H3709-AA; test: two-hybrid library CCmax; settings: mean of both orientations;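 note: natural log of median RNA to DNA barcode read ratio; higher means stronger binding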
T1 chain: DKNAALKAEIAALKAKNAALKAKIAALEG

[2] = target: T2, 4H189-AA; test: two-hybrid library CCmax; settings: mean of both orientations;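 note: natural log of median RNA to DNA barcode read ratio; higher means stronger binding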
T2 chain: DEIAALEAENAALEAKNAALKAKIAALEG

[3] = target: T3, 4H3066-AA; test: two-hybrid library CCmax; settings: mean of both orientations;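 note: natural log of median RNA to DNA barcode read ratio; higher means stronger binding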
T3 chain: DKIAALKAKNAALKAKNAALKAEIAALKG

[4] = target: T4, 4H675-AA; test: two-hybrid library CCmax; settings: mean of both orientations;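 note: natural log of median RNA to DNA barcode read ratio; higher means stronger binding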
T4 chain: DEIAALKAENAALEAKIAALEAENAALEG

[5] = target: T5, 4H3446-AA; test: two-hybrid library CCmax; settings: mean of both orientations;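 note: natural log of median RNA to DNA barcode read ratio; higher means stronger binding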
T5 chain: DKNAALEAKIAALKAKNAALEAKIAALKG

[6] = target: T6, 4H656-AA; test: two-hybrid library CCmax; settings: mean of both orientations;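 note: natural log of median RNA to DNA barcode read ratio; higher means stronger binding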
T6 chain: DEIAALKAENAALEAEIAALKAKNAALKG

[7] = target: T7, 4H3102-AA; test: two-hybrid library CCmax; settings: mean of both orientations
T7 chain: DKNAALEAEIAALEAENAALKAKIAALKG

[8] = target: T8, 4H3417-AA; test: two-hybrid library CCmax; settings: mean of both orientations
T8 chain: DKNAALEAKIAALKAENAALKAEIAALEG

[9] = target: T9, 4H497-AA; test: two-hybrid library CCmax; settings: mean of both orientations
T9 chain: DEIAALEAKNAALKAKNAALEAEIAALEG

[10] = target: T10, 4H3939-AA; test: two-hybrid library CCmax; settings: mean of both orientations
T10 chain: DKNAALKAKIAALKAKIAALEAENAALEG

[11] = target: T11, 4H3920-AA; test: two-hybrid library CCmax; settings: mean of both orientations
T11 chain: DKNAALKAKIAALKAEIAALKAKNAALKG

[12] = target: T12, 4H3628-AA; test: two-hybrid library CCmax; settings: mean of both orientations
T12 chain: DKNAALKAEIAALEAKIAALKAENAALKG

[13] = target: T13, 4H2713-AA; test: two-hybrid library CCmax; settings: mean of both orientations
T13 chain: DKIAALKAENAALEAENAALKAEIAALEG

[14] = target: T14, 4H478-AA; test: two-hybrid library CCmax; settings: mean of both orientations
T14 chain: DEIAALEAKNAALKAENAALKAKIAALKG

[15] = target: T15, 4H2283-AA; test: two-hybrid library CCmax; settings: mean of both orientations
T15 chain: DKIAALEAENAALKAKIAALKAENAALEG

[16] = target: T16, 4H3591-AA; test: two-hybrid library CCmax; settings: mean of both orientations
T16 chain: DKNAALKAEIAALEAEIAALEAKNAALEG

[17] = target: T17, 4H2742-AA; test: two-hybrid library CCmax; settings: mean of both orientations
T17 chain: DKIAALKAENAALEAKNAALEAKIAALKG

[18] = target: T18, 4H391-AA; test: two-hybrid library CCmax; settings: mean of both orientations
T18 chain: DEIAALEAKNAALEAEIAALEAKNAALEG

[19] = target: T19, 4H3029-AA; test: two-hybrid library CCmax; settings: mean of both orientations
T19 chain: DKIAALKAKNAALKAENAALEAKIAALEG

[20] = target: T20, 4H1854-AA; test: two-hybrid library CCmax; settings: mean of both orientations
T20 chain: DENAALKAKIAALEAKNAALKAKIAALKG

[21] = target: T21, 4H3121-AA; test: two-hybrid library CCmax; settings: mean of both orientations
T21 chain: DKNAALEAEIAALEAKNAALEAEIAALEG

[22] = target: T22, 4H2248-AA; test: two-hybrid library CCmax; settings: mean of both orientations
T22 chain: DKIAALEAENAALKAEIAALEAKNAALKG

[23] = target: T23, 4H2991-AA; test: two-hybrid library CCmax; settings: mean of both orientations
T23 chain: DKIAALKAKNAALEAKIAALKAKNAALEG

[24] = target: T24, 4H971-AA; test: two-hybrid library CCmax
T24 chain: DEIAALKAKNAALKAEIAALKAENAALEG

[25] = target: T25, 4H1809-AA; test: two-hybrid library CCmax
T25 chain: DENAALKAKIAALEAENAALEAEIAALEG

[26] = target: T26, 4H2948-AA; test: two-hybrid library CCmax; settings: mean of both orientations
T26 chain: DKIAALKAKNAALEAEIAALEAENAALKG

[27] = target: T27, 4H428-AA; test: two-hybrid library CCmax; settings: mean of both orientations
T27 chain: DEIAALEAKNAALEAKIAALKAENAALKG

[28] = target: T28, 4H3666-AA; test: two-hybrid library CCmax; settings: mean of both orientations
T28 chain: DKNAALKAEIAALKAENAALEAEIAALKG

[29] = target: T29, 4H2692-bH; test: two-hybrid library CCNG1
T29 chain: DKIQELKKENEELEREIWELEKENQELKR

[30] = target: T30, 4H2839-bH; test: two-hybrid library CCNG1
T30 chain: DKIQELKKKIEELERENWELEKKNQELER

[31] = target: T31, 4H2585-bH; test: two-hybrid library CCNG1
T31 chain: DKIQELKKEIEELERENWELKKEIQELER

[32] = target: T32, 4H492-bH; test: two-hybrid library CCNG1
T32 chain: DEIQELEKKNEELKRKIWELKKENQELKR

[33] = target: T33, 4H40-bH; test: two-hybrid library CCNG1
T33 chain: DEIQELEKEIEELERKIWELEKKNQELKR

[34] = target: T34, 4H3057-bH; test: two-hybrid library CCNG1
T34 chain: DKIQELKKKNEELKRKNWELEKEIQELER

[35] = target: T35, 4H3277-bH; test: two-hybrid library CCNG1
T35 chain: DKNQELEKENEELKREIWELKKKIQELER

[36] = target: T36, 4H741-bH; test: two-hybrid library CCNG1
T36 chain: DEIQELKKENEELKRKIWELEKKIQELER

[37] = target: T37, 4H2588-bH; test: two-hybrid library CCNG1
T37 chain: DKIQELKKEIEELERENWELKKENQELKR

[38] = target: T38, 4H2717-bH; test: two-hybrid library CCNG1
T38 chain: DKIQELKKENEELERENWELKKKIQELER

[39] = target: T39, 4H348-bH; test: two-hybrid library CCNG1
T39 chain: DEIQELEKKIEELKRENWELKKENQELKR

[40] = target: T40, 4H2915-bH; test: two-hybrid library CCNG1
T40 chain: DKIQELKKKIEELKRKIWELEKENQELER

[41] = target: T41, 4H319-bH; test: two-hybrid library CCNG1
T41 chain: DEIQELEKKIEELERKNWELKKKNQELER

[42] = target: T42, 4H477-bH; test: two-hybrid library CCNG1
T42 chain: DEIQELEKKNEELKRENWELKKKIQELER

[43] = target: T43, P6A-bP; test: two-hybrid library CCNG1
T43 chain: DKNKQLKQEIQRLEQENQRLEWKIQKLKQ

[44] = target: T44, P9A-bP; test: two-hybrid library CCNG1
T44 chain: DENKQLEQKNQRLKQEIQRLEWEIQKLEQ

[45] = target: T45, P8A-bP; test: two-hybrid library CCNG1
T45 chain: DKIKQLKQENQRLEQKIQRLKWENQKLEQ

[46] = target: T46, P7A-bP; test: two-hybrid library CCNG1
T46 chain: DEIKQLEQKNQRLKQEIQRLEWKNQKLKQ

[47] = target: T47, 4H355-AA; test: two-hybrid library CCmax; settings: mean of both orientations
T47 chain: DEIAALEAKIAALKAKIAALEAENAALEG

[48] = target: T48, 4H3365-AA; test: two-hybrid library CCmax; settings: mean of both orientations
T48 chain: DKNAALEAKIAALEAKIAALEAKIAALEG

[49] = target: T49, 4H3705-AA; test: two-hybrid library CCmax; settings: mean of both orientations
T49 chain: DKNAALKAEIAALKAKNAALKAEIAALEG

[50] = target: T50, 4H3782-AA; test: two-hybrid library CCmax; settings: mean of both orientations
T50 chain: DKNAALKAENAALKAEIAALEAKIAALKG

[51] = target: T51, 4H58-AA; test: two-hybrid library CCmax; settings: mean of both orientations
T51 chain: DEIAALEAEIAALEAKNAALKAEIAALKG

[52] = target: T52, 4H465-AA; test: two-hybrid library CCmax; settings: mean of both orientations
T52 chain: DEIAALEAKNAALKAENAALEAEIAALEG

[53] = target: T53, 4H486-AA; test: two-hybrid library CCmax; settings: mean of both orientations
T53 chain: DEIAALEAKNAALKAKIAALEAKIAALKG

[54] = target: T54, 4H535-AA; test: two-hybrid library CCmax; settings: mean of both orientations
T54 chain: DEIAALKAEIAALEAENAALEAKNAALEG

[55] = target: T55, 4H895-AA; test: two-hybrid library CCmax; settings: mean of both orientations
T55 chain: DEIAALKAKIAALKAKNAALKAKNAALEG

[56] = target: T56, 4H_APH; test: two-hybrid library CCmax; settings: mean of both orientations
T56 chain: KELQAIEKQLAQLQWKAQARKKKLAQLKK

[57] = target: T57, 4H3651-AA; test: two-hybrid library CCmax; settings: mean of both orientations
T57 chain: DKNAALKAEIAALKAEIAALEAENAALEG

[58] = target: T58, 4H2898-AA; test: two-hybrid library CCmax
T58 chain: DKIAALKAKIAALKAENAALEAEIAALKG

[59] = target: T59, 4H3020-AA; test: two-hybrid library CCmax; settings: mean of both orientations
T59 chain: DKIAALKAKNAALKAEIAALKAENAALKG

[60] = target: 4H_GCN4; test: two-hybrid library CCmax; settings: mean of both orientations
[61] = target: GCN2_T; test: two-hybrid library CCmax
[62] = target: T60, 4H_BCR; test: two-hybrid library CCmax; settings: mean of both orientations
T60 chain: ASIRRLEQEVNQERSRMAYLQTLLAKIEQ

Chain of 4H_GCN4 (chain, as listed by the source): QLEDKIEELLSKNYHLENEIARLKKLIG

B1: 4H1809-AA (peptide)
chain: DENAALKAKIAALEAENAALEAEIAALEG
interaction score [1]: 1.51
interaction score [2]: -0.354
interaction score [3]: 0.194
interaction score [4]: -1.74
interaction score [5]: 1.42
interaction score [6]: -1.1
interaction score [7]: 2.27
interaction score [8]: -0.579
interaction score [9]: -1.51
interaction score [10]: -1.45
interaction score [11]: -0.86
interaction score [12]: -1.29
interaction score [13]: -1.63
interaction score [14]: 0.898
interaction score [15]: 1.16
interaction score [16]: -1.94
interaction score [17]: -1.29
interaction score [18]: -1.47
interaction score [19]: -2.28
interaction score [20]: 2.32
interaction score [21]: -1.18
interaction score [22]: -0.294
interaction score [23]: -0.235
interaction score ([24]; mean of both orientations): 0.362
interaction score [25]: -0.349
interaction score [26]: -1.16
interaction score [27]: -0.837
interaction score [28]: -1.2

B2: 4H2503-bH (peptide)
chain: DKIQELEKKNEELKREIWELEKKNQELER
interaction score [29]: 0.839
interaction score [30]: 0.527
interaction score [31]: -1.1
interaction score [32]: -0.241
interaction score [33]: -2.05
interaction score [34]: 0.435
interaction score [35]: -0.644
interaction score [36]: 0.303
interaction score [37]: -0.858
interaction score [38]: -0.106
interaction score [39]: -0.941
interaction score [40]: 0.0935
interaction score [41]: -0.903
interaction score [42]: -0.993

B3: P6A-bP (peptide)
chain: DKNKQLKQEIQRLEQENQRLEWKIQKLKQ
interaction score [43]: -0.494
interaction score [44]: -0.616
interaction score [45]: -0.264
interaction score [46]: 0.418

B4: 4H146-AA (peptide)
chain: DEIAALEAENAALEAENAALEAEIAALKG
interaction score [1]: -0.0632
interaction score [2]: -0.199
interaction score [3]: 1.92
interaction score [4]: -2.03
interaction score [5]: -0.572
interaction score [6]: -1.76
interaction score [7]: -1.45
interaction score [8]: -0.477
interaction score [9]: 0.786
interaction score [10]: -1.52
interaction score [11]: 0.785
interaction score [12]: -1.8
interaction score [13]: 0.457
interaction score [14]: 1.98
interaction score [15]: -1.02
interaction score [16]: -1.28
interaction score [17]: 0.586
interaction score [18]: -1.68
interaction score [19]: 2.06
interaction score [20]: 1.2
interaction score [21]: -1.69
interaction score [22]: -1.75
interaction score [23]: -0.675
interaction score [24]: 0.134
interaction score ([25]; mean of both orientations): -1.69
interaction score [26]: -1.48
interaction score [27]: -1.8
interaction score [28]: -0.984

B5: 4H2898-AA (peptide)
chain: DKIAALKAKIAALKAENAALEAEIAALKG
interaction score [47]: 0.0321
interaction score [48]: -1.78
interaction score [49]: 1.04
interaction score [50]: -1.39
interaction score [51]: 2.06
interaction score [52]: -1.49
interaction score [53]: 1.49
interaction score [54]: 0.142
interaction score [55]: -0.62
interaction score [56]: -1.54
interaction score [57]: -0.71
interaction score [58]: 0.588
interaction score [59]: -0.301
interaction score [60]: -0.672
interaction score [61]: -0.0478
interaction score [62]: 0.271

Reference: publication PMC10397247
